Measured values published in US20260131011A1.
No end group written: not given here.

B1: HPIV3_3004 (native) HR2 ligand conjugated to cholesterol (Peptide Conjugate 12) (peptide)
peptide: VALDPIDISIELNKAKSDLEESKEWIRRSNQKLDSI
modifications: also: conjugated to cholesterol
RSVA2
  EC50: 50 nM
RSVB18537
  EC50: < 40 nM
hPIVC243
  EC50: > 5290 nM
